Data: PMC12203963

B1: ALFA-tagged IRT1 (iron-regulated transporter 1), wildtype [Arabidopsis thaliana] / CIPK23 fused to the mCitC fragment [not stated] (parent)
chain 1: MASRTTPSRSTPSRSTPSGSSSGGRTRVGKYELGRTLGEGTFAKVKFARNVENGDNVAIKVIDKEKVLKNKMIAQIKREISTMKLIKHPNVIRMFEVMASKTKIYFVLEFVTGGELFDKISSNGRLKEDEARKYFQQLINAVDYCHSRGVYHRDLKPENLLLDANGALKVSDFGLSALPQQVREDGLLHTTCGTPNYVAPEVINNKGYDGAKADLWSCGVILFVLMAGYLPFEDSNLTSLYKKIFKAEFTCPPWFSASAKKLIKRILDPNPATRITFAEVIENEWFKKGYKAPKFENADVSLDDVDAIFDDSGESKNLVVERREEGLKTPVTMNAFELISTSQGLNLGSLFEKQMGLVKRKTRFTSKSSANEIVTKIEAAAAPMGFDVKTNNYKMKLTGEKSGRKGQLAVATEVFQVAPSLYMVEMRKSGGDTLEFHKFYKNLTTGLKDIVWKTIDEEKEEGTDGGGTNGAMANRTIAKQST
chain 2: ISPATSTAPEECGSESANPCVNKAKALPLKVIAIFVILIASMIGVGAPLFSRNVSFLQPDGNIFTIIKCFASGIILGTGFMHVLPDSFEMLSSICLEENPWHKFPFSGFLAMLSGLITLAIDSMATSLYTSKNAVGIMPHGHGHGHGPANDVTLPIKEDDSSNAQLLRYRVIAMVLELGIIVHSVVIGLSLGATSDTCTIKGLIAALCFHQMFEGMGLGGCILQAEYTNMKKFVMAFFFAVTTPFGIALGIALSTVYQDNSPKALITVGLLNACSAGLLIYMALVDLLAAEFMGPKLQGSIKMQFKCLIAALLGCGGMSIIAKWA

Variants of: B1
Test: trimolecular fluorescence complementation (TriFC)
Details: with CIPK23 fused to the mCitC fragment; parent: 74; read off a plot
chain 2 D151Q was tested, and the response was 67. Work on chain 2 H140A H142A yielded a response of 46. Variant chain 2 H140A H142A D151Q has a response of 23.
